{"source": "patent US20260199443A1", "about": "“HISTONE DEACYTLASE 6 MODULATION OF TITIN PROTEIN MEDIATED CARDIAC TISSUE STIFFNESS AND METHOD FOR SAME” (The Regents of the University of Colorado, a Body Corporate, priority 2019, published 2026)", "key": {"[1]": {"tested_on": "myofibrils from non-failing human LVs", "experiment": "Ex vivo treatment of human myofibrils with recombinant PKCα, with or without subsequent recombinant HDAC6, then myofibril mechanics", "description": "(§1) Myofibril mechanics were quantified using the fast solution switching technique (47). Frozen LV sections were skinned in 0.5% Triton-X in rigor solution (132 mM NaCl, 5 mM KCl, 1 mM MgCl2, 10 mM Tris, 5 mM EGTA, pH 7.1) containing protease inhibitors (10 μm leupeptin, 5 μm pepstatin, 200 μm PMSF and 10 μm E64), as well as 500 μm NaN3 and 500 μm DTT at 4° C. overnight. Skinned LVs were washed in fresh rigor solution and homogenized (Tissue-Tearor, Thomas Scientific) in relaxing solution (pCa 9.0) containing protease inhibitors. Myofibril suspensions were transferred to a temperature controlled chamber (15° C.) containing relaxing solution (pCa 9.0; 100 mM Na2EGTA; 1 M potassium propionate; 100 mM Na2SO4; 1 M MOPS; 1 M MgCl2; 6.7 mM ATP; and 1 mM creatine phosphate; pH 7.0). Myofibril bundles were mounted between two micro-tools. One tool was connected to a motor that could produce rapid length changes (Mad City Labs). The second tool was a calibrated cantilevered force probe (7-10 μm/μN; frequency response 2-5 KHz). Myofibrils were set 5-10% above slack myofibril length. Average sarcomere lengths and myofibril diameters were measured using ImageJ software. Mounted myofibrils were activated and relaxed by rapidly translating the interface between two flowing streams of solutions of different pCa. Data were collected and analyzed using customized Lab View software. Measured mechanical and kinetic parameters were defined as follows: resting tension (mN/mm^2)=myofibril basal tension in fully relaxing condition; maximal tension (mN/mm^2)=maximal tension generated at full calcium activation (pCa 4.5); the rate constant of tension development following maximal calcium activation=kACT; and relaxation parameters were defined as: duration of the linear relaxation=linear duration, and the rate constant of exponential relaxation=fast kREL. For, myofibril resting tension-to-sarcomere length curves, each myofibril was stretched incrementally to determine the resting tension at different sarcomere lengths, and a resting tension-sarcomere length relationship was measured. […]"}, "rat myofibrils (titin)": {"tested_on": "rat myofibrils (titin)", "experiment": "Ex vivo incubation of purified rat myofibrils with recombinant enzyme, then myofibril mechanics", "conditions": "30 minutes", "description": "as §1, with “Myofibril suspensions were transferred to a temperature controlled chamber (15° C.) containing relaxing solution (pCa 9.0; 100 mM Na2EGTA; 1 M potassium propionate; 100 mM Na2SO4; 1 M MOPS; 1 M MgCl2; 6.7 mM ATP; and 1 mM creatine phosphate; pH 7.0). Myofibril bundles were mounted between two micro-tools. One tool was connected to a motor that could produce rapid length changes (Mad City Labs). The second tool was a calibrated cantilevered force probe (7-10 μm/μN; frequency response 2-5 KHz). Myofibrils were set 5-10% above slack myofibril length.” left out, “Mounted myofibrils were activated and relaxed by rapidly translating the interface between two flowing streams of solutions of different pCa.” left out"}, "[2]": {"tested_on": "adult rat ventricular myocytes (ARVMs)", "experiment": "Myofibril resting tension after 24 hour treatment of cultured ARVMs", "assay_type": "cell-based", "conditions": "myofibrils isolated from ARVMs treated for 24 hours"}, "HDAC6": {"target": "T1, HDAC6 (Rattus norvegicus, UniProt A0A8I6GM68)", "T1 construct": "endogenous in cells; host or cells: adult rat ventricular myocytes (ARVMs) from Sprague Dawley rats", "T1 sequence (A0A8I6GM68 whole entry)": "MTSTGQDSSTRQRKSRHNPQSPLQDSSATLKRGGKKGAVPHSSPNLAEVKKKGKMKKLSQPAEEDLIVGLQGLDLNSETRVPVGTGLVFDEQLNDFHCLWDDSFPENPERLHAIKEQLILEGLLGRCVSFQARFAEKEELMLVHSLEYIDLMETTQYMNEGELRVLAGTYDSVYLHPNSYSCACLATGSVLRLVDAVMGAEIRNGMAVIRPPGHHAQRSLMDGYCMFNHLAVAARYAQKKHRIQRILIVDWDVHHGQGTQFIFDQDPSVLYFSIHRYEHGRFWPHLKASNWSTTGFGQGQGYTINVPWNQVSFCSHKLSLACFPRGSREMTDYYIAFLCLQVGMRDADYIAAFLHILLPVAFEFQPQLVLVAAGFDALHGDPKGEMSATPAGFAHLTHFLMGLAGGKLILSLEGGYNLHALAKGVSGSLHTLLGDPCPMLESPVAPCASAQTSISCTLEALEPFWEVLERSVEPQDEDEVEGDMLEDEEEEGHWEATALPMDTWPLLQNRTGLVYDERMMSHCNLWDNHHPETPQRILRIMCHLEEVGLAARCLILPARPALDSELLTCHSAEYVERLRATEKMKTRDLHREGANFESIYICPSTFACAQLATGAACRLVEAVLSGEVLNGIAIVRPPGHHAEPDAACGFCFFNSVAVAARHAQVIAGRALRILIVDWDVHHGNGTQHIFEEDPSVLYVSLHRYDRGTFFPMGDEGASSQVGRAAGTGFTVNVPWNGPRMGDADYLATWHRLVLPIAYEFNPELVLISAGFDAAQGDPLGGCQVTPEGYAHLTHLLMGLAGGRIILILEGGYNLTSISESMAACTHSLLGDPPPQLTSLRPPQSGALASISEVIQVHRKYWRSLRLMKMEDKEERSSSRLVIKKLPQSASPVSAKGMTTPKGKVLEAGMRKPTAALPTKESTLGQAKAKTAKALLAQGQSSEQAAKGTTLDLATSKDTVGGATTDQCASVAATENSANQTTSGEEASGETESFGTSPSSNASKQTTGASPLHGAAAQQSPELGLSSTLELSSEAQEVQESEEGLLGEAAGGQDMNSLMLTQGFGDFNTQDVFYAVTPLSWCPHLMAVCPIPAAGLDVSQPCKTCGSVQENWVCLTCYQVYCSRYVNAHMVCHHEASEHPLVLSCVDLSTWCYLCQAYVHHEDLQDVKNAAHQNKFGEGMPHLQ", "experiment": "Tubulin acetylation in treated ARVMs as a marker of HDAC6 inhibition (immunofluorescence, immunoblot)", "assay_type": "cell-based", "conditions": "ARVMs treated for 24 hours", "text": "FIG. 1K are images of immunoblot analysis of acetyl-tubulin and total tubulin in whole-cell homogenates from treated ARVMs."}, "[3]": {"tested_on": "diastolic dysfunction in murine models", "conditions": "murine models of hypertension and aging, reference (21); cited from earlier work"}, "[4]": {"tested_on": "WT mouse left ventricle myofibrils (titin)", "experiment": "Ex vivo treatment of WT mouse LV myofibrils with recombinant HDAC6, then myofibril mechanics", "conditions": "30 minutes, listed as rHDAC6", "description": "as §1, with “Myofibril suspensions were transferred to a temperature controlled chamber (15° C.) containing relaxing solution (pCa 9.0; 100 mM Na2EGTA; 1 M potassium propionate; 100 mM Na2SO4; 1 M MOPS; 1 M MgCl2; 6.7 mM ATP; and 1 mM creatine phosphate; pH 7.0). Myofibril bundles were mounted between two micro-tools. One tool was connected to a motor that could produce rapid length changes (Mad City Labs). The second tool was a calibrated cantilevered force probe (7-10 μm/μN; frequency response 2-5 KHz). Myofibrils were set 5-10% above slack myofibril length.” left out, “Mounted myofibrils were activated and relaxed by rapidly translating the interface between two flowing streams of solutions of different pCa.” left out"}, "[5]": {"tested_on": "myofibrils from mice lacking the PEVK region of titin", "experiment": "Ex vivo treatment of PEVK KO mouse LV myofibrils with recombinant HDAC6, then myofibril mechanics", "conditions": "30 minutes", "description": "as §1, with “Myofibril suspensions were transferred to a temperature controlled chamber (15° C.) containing relaxing solution (pCa 9.0; 100 mM Na2EGTA; 1 M potassium propionate; 100 mM Na2SO4; 1 M MOPS; 1 M MgCl2; 6.7 mM ATP; and 1 mM creatine phosphate; pH 7.0). Myofibril bundles were mounted between two micro-tools. One tool was connected to a motor that could produce rapid length changes (Mad City Labs). The second tool was a calibrated cantilevered force probe (7-10 μm/μN; frequency response 2-5 KHz). Myofibrils were set 5-10% above slack myofibril length.” left out, “Mounted myofibrils were activated and relaxed by rapidly translating the interface between two flowing streams of solutions of different pCa.” left out"}, "[6]": {"tested_on": "human myofibrils from non-failing donor left ventricle (titin)", "experiment": "Ex vivo treatment of human LV myofibrils with recombinant HDAC6, then myofibril mechanics", "description": "as §1, with “Myofibril suspensions were transferred to a temperature controlled chamber (15° C.) containing relaxing solution (pCa 9.0; 100 mM Na2EGTA; 1 M potassium propionate; 100 mM Na2SO4; 1 M MOPS; 1 M MgCl2; 6.7 mM ATP; and 1 mM creatine phosphate; pH 7.0). Myofibril bundles were mounted between two micro-tools. One tool was connected to a motor that could produce rapid length changes (Mad City Labs). The second tool was a calibrated cantilevered force probe (7-10 μm/μN; frequency response 2-5 KHz). Myofibrils were set 5-10% above slack myofibril length.” left out, “Mounted myofibrils were activated and relaxed by rapidly translating the interface between two flowing streams of solutions of different pCa.” left out"}, "[7]": {"tested_on": "PKC-driven phosphorylation of sacromeric proteins", "experiment": "Immunoblot with anti-PKC substrate antibody of treated human myofibril proteins", "assay_type": "biochemical", "conditions": "human myofibrils, PKCα followed by HDAC6", "description": "FIG. 3E is an immunoblot performed with an anti-PKC substrate antibody and solubilized proteins from myofibrils treated as indicated in the protocol illustrated in FIG. 3B.\nElevated PEVK phosphorylation is s associated with increased cardiomyocyte passive stiffness in pre-clinical models and in human heart failure (7). To begin to address the therapeutic potential of HDAC6 gain-of-function, an ex vivo experiment was performed to determine whether HDAC6 is capable of overriding the cardiac stiffening effect of PKC. Myofibrils obtained from non-failing human LVs were pretreated with recombinant PKCα, washed, and then incubated with recombinant HDAC6 (FIG. 3B)."}}, "note": "“Also recorded” adds a separate entry of the source. Read-outs that look alike come from different tables or passages of the source."}
{"molecule": "PKCα: recombinant PKCα (0.066 U/μL, Millipore 14-484) with lipid activator", "values": [{"measurement": "myofibril resting tension at physiologic sarcomere length", "setting": "[1]; human myofibrils treated with recombinant PKCα alone", "value": "dramatically increased"}]}
{"molecule": "HDAC2: recombinant HDAC2 used as control in the ex vivo myofibril assay", "values": [{"measurement": "titin stiffness / myofibril compliance", "setting": "rat myofibrils (titin)", "value": "not"}]}
{"molecule": "CN1CCc2c(c3ccccc3n2Cc2ccc(C(=O)NO)cc2)C1", "note": "[tubastatin A]", "values": [{"measurement": "myofibril resting tension / myofibril stiffness", "setting": "[2]", "value": "elevated resting tension; also recorded: dramatically increased resting tension"}, {"measurement": "tubulin acetylation as a marker of HDAC6 inhibition", "setting": "HDAC6", "value": "inhibited HDAC6 equivalently"}]}
{"molecule": "CCN(CC)Cc1ccc2cc(COC(=O)Nc3ccc(C(=O)NO)cc3)ccc2c1", "note": "[givinostat, [6-(diethylaminomethyl)naphthalen-2-yl] methyl N-[4-(hydroxycarbamoyl)phenyl] carbamate]", "values": [{"measurement": "myofibril resting tension / myofibril stiffness", "setting": "[2]", "value": "no effect"}, {"measurement": "diastolic dysfunction", "setting": "[3]", "value": "ameliorates rather than exacerbates diastolic dysfunction"}]}
{"molecule": "recombinant HDAC6: recombinant HDAC6 (1 μg/μL, BPS Bioscience) used for ex vivo treatment of myofibrils", "values": [{"measurement": "titin stiffness / myofibril compliance", "setting": "rat myofibrils (titin)", "value": "reduced titin stiffness; also recorded: increases myofibril compliance"}, {"measurement": "myofibril compliance", "setting": "[4]", "value": "increased compliance"}, {"measurement": "response of myofibril stiffness to HDAC6", "setting": "[5]", "value": "completely resistant"}, {"measurement": "myofibril compliance / cardiomyocyte passive stiffness", "setting": "[6]", "value": "increases myofibril compliance"}, {"measurement": "myofibril compliance / cardiomyocyte passive stiffness", "setting": "[6]; listed as rHDAC6", "value": "conserved ability of this deacetylase to control cardiomyocyte passive stiffness"}, {"measurement": "PKC-induced leftward shift in the sarcomere length-to-resting tension curve", "setting": "[1]; human myofibrils pretreated with recombinant PKCα, then recombinant HDAC6", "value": "largely blocked"}, {"measurement": "PKCα-induced stiffening (resting tension at physiologic sarcomere length)", "setting": "[1]; human myofibrils pretreated with recombinant PKCα, washed, then incubated with recombinant HDAC6", "value": "completely normalized"}, {"measurement": "PKC-driven phosphorylation of sacromeric proteins", "setting": "[7]", "value": "without affecting"}]}
